Laboratory results from paper PMC10568284.

How the values were obtained:
antithrombin = antithrombin (UniProt P01008); test: SPR
[1] = target: tissue factor pathway inhibitor alpha (human) (UniProt P10646); test: SPR
Sequence of UniProt P10646 (P10646 29-304): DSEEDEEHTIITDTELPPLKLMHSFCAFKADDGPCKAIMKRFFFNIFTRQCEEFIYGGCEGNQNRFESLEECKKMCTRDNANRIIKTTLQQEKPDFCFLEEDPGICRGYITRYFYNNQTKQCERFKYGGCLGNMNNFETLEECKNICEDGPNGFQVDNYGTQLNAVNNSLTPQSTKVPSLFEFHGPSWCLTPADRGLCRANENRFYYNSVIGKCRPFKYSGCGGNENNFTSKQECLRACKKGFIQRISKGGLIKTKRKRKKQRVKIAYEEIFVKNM

Sequence of UniProt P01008 (P01008 33-464): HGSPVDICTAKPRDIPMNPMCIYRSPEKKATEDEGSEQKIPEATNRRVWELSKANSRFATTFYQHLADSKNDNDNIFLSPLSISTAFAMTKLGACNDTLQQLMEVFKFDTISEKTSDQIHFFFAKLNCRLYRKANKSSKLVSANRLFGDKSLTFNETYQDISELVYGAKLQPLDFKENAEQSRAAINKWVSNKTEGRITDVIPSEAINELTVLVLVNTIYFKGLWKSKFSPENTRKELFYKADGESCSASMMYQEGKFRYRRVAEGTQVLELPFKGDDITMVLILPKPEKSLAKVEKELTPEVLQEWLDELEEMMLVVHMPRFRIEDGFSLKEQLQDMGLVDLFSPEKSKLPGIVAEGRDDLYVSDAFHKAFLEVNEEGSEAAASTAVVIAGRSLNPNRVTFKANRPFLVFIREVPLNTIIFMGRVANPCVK

Kd (antithrombin)	Kd [1]	Substance
416 nM	2 nM	S195A Gla-domainless factor Xa (from UniProt P00742 82-182; P00742 235-488) (domain or fragment)
460 nM	–	K96YS195A GD-FXa (from UniProt P00742 82-182; P00742 235-488) (domain or fragment)
